In paper PMC6589575:

Biological target: His6–Drp1, full-length Drp1-short isoform
Assay: co-sedimentation

- percent of His6–Drp1 in the pellet (with GMP–PCP and His6–cyclin C): 34%
- percent of His6–Drp1 in the pellet (with GMP–PCP): 16%
Substance: His6–Drp1, full-length Drp1-short isoform (enzyme)
